Results: patent US12115223B2, “Conjugate of biotin-modified dimer and phthalocyanine dye” (THE UNIVERSITY OF TOKYO, priority 2021, dated 2024)

T1: Recombinant Human CEACAM-5/CD66e Protein (Homo sapiens, UniProt P06731)
T1 construct: purchased R & D SYSTEMS
T1 sequence (P06731 35-676): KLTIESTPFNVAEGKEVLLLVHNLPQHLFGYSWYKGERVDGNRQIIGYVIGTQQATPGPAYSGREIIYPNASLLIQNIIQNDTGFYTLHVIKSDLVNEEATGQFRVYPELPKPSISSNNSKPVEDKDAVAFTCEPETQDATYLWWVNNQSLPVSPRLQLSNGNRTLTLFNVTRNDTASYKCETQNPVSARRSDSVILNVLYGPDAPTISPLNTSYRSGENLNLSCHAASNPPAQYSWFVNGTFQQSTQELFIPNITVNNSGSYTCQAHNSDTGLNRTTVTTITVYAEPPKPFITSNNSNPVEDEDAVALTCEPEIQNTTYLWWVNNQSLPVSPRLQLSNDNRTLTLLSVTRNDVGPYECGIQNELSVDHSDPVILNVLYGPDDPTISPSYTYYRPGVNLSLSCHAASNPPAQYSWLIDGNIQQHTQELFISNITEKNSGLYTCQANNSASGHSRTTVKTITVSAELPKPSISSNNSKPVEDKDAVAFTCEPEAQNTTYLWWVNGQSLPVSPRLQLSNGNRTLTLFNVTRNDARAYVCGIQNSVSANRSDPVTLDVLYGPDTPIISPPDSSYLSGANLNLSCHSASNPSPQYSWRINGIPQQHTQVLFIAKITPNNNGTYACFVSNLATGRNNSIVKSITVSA

B1: CEA-V2122: scFv-type anti-CEACAM5 antibody bound with mutant streptavidin V2122 via an amino acid linker (SEQ ID NO: 3) (protein)
chain: QVKLEQSGAEVVKPGASVKLSCKASGFNIKDSYMHWLRQGPGQRLEWIGWIDPENGDTEYAPKFQGKATFTTDTSANTAYLGLSSLRPEDTAVYYCNEGTPTGPYYFDYWGQGTLVTVSSGGGGSGGGGSGGGGSENVLTQSPSSMSVSVGDRVNIACSASSSVPYMHWLQQKPGKSPKLLIYLTSNLASGVPSRFSGSGSGTDYSLTISSVQPEDAATYYCQQRSSYPLTFGGGTKLEIKGGGGSGGGGAEAGITGTWSDQLGDTFIVTAGADGALTGTYENAVGGAESRYVLTGRYDSAPATDGSGTALGWTVAWKNNSKNAHSATTWSGQYVGGADAKINTQWLLTSGTTNANAWKSTLVGHDTFTKVKPSAASHHHHHH
B2: CEA-V2122-FITC: purified CEA-V2122 protein labeled using Fluorescein Labeling Kit-NH2 (conjugate)
chain: QVKLEQSGAEVVKPGASVKLSCKASGFNIKDSYMHWLRQGPGQRLEWIGWIDPENGDTEYAPKFQGKATFTTDTSANTAYLGLSSLRPEDTAVYYCNEGTPTGPYYFDYWGQGTLVTVSSGGGGSGGGGSGGGGSENVLTQSPSSMSVSVGDRVNIACSASSSVPYMHWLQQKPGKSPKLLIYLTSNLASGVPSRFSGSGSGTDYSLTISSVQPEDAATYYCQQRSSYPLTFGGGTKLEIKGGGGSGGGGAEAGITGTWSDQLGDTFIVTAGADGALTGTYENAVGGAESRYVLTGRYDSAPATDGSGTALGWTVAWKNNSKNAHSATTWSGQYVGGADAKINTQWLLTSGTTNANAWKSTLVGHDTFTKVKPSAASHHHHHH

Key:
[1] = biological target: T1, Recombinant Human CEACAM-5/CD66e Protein; test: SPR (Biacore T200) affinity of CEA-V2122 for the antigen CEACAM5; assay type: binding; conditions: bivalent analysis
Method: The affinity of CEA-V2122 for the antigen CEACAM5 was evaluated using a surface plasmon resonance (SPR) measuring device, Biacore T200 (GE Healthcare Life Sciences). Specifically, Recombinant Human CEACAM-5/CD66e Protein, CF (R & D SYSTEMS) was immobilized on Sensor Chip CMS (GE Healthcare Life Sciences) using an amine-coupling kit (GE Healthcare Life Sciences). The fmal amount of the ligand immobilized was 279 RU. Moreover, with regard to the purified CEA-V2122, two-fold serial dilutions from 1E-08 M to 6.25E-10 M were prepared as analytes. Regarding interaction analysis, data were obtained by single-cycle kinetics analysis. Using Biacore T200 Evaluation Software, version 2.0, the obtained data were subjected to curve fitting in a bivalent analysis mode, and the following values were obtained: ka1=3.208E+5, and kd1=3.461E-7.

[2] = tested on: CEACAM5-positive MKN-45 cells and CEACAM5-negative DLD1 cells; test: Cell staining of CEACAM5-expressing cell line using FITC-labeled CEA-V2122; assay type: cell-based, human; conditions: 20 nM CEA-V2122-FITC
Method: In order to stain a CEACAM5 expression-positive cancer cell line, FITC labeling was carried out on the cell line, using 100 μg of a purified CEA-V2122 protein. Specifically, labeling was carried out using Fluorescein Labeling Kit-NH2 (DOJINDO LABORATORIES) in accordance with the dosage and administration described in the operating manual included with the kit, and the obtained product was defined to be CEA-V2122-FITC. Specific staining of the CEACAM5 expression-positive cancer cell line is as follows. That is, CEACAM5-positive human stomach cancer-derived MKN-45 cells and CEACAM5-negative human colon cancer-derived DLD1 cells were each seeded on a CELLSTAR, μClear, 96-well plate (Greiner) to a cell density of 2.0×10^4 cells/well, and thereafter, the cells were cultured overnight. Subsequently, a culture solution containing 20 nM CEA-V2122-FITC and 1 μM Hoechist was added to the 96-well plate to a concentration of 100 μL/well, and the obtained mixture was then reacted at 4° C. for 30 minutes. Thereafter, each image was taken using In Cell Analyzer 6000 (GE Healthcare Life Sciences).

| Molecule | KD=kd1/ka1 [1] | localisation of CEACAM5 after binding (time-series images of MKN45 cells, FIG. 6) [2] | recognition of CEACAM5 on cells (stained cell images, FIG. 5) ([2]; 4° C., 30 minutes) |
| --- | --- | --- | --- |
| B1 | 1.078E-12 | – | – |
| B2 | – | the CEACAM5 stays on the surface of the cell membrane | specifically recognizes CEACAM5 on the surface of the cell membrane |
